Laboratory results: the supplement of paper PMC6757056
± gives the standard deviation of the averaged measurements.

B1: library; a variant is named by its letters at N, in order (parent)
chain: GCUGUCACCGGUGUAUUACCCUAGUGGUCGACCGGUCUGAUGAGUCUNNNNNNAGACGAAACAGC

Assays:
hypoxanthine [1] = variants of: B1; assay: normalized RNA/DNA level with ligand (relative to sTRSVctl = 100) (log10 (% of sTRSVctl)); ligand: hypoxanthine (xanthine aptamer); higher = less ribozyme self-cleavage, higher mRNA level; settings: ligand concentration (+) RNA-Seq: 5 mM, HEK293T, reporter: mCherry (pCS4076), ligand present: yes
Procedure, shortened: (§1)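 Only sequences with at least 100 DNA reads were analyzed, from HEK293T cells transfected with 4 µg per 6-well well of ribozyme switch library plasmids 72 h before RNA extraction with EDTA. Any ligand was added 1 h before transfection. RNA level was defined as RNA over DNA reads, normalized to a spiked-in non-cleaving sequence or to the top sequences, then scaled and log-transformed. The top set was 25 sequences, and the scaling was ×100 followed by log10.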

hypoxanthine [2] = variants of: B1; assay: normalized RNA/DNA level without ligand (relative to sTRSVctl = 100) (log10 (% of sTRSVctl)); ligand: hypoxanthine (xanthine aptamer); higher = less ribozyme self-cleavage, higher mRNA level; settings: HEK293T, reporter: mCherry (pCS4076), ligand present: no
Procedure, shortened: as §1

Variant | normalized RNA/DNA level with ligand (log10) (hypoxanthine [1]) | normalized RNA/DNA level without ligand (log10) (hypoxanthine [2])
CGAUCG | 1.94 ± 0.027 | 1.84 ± 0.038
CGAUCU | 1.95 ± 0.046 | 1.877 ± 0.0033
AGACAC | 1.92 ± 0.025 | 1.76 ± 0.033
CCUGGC | 2.01 ± 0.037 | 1.924 ± 0.00087
CCUGGG | 1.94 ± 0.027 | 1.508 ± 0.014
CCUGGA | 1.996 ± 0.0047 | 1.88 ± 0.02
CCUGGU | 1.945 ± 0.014 | 1.88 ± 0.0076
GGAUCC | 1.96 ± 0.049 | 1.95 ± 0.018
GGAUCA | 1.96 ± 0.04 | 1.84 ± 0.037
GGAUCU | 1.95 ± 0.051 | 1.92 ± 0.023
UCUUGG | 1.92 ± 0.035 | 1.751 ± 0.008
UCUUGC | 1.98 ± 0.1 | 1.9 ± 0.022
UCUUGU | 1.91 ± 0.1 | 1.667 ± 0.0039
AGACUA | 1.95 ± 0.056 | 1.762 ± 0.0092
AGACUG | 1.89 ± 0.045 | 1.58 ± 0.036
UGAUGU | 1.91 ± 0.02 | 1.67 ± 0.022
UGAUGC | 1.95 ± 0.059 | 1.852 ± 0.014
UGAUGG | 1.92 ± 0.062 | 1.51 ± 0.064
CCUUAG | 1.98 ± 0.025 | 1.72 ± 0.037
CCUUAC | 1.94 ± 0.025 | 1.829 ± 0.0071
CCUUAU | 1.95 ± 0.014 | 1.93 ± 0.069
CCUUAA | 1.96 ± 0.034 | 1.85 ± 0.038
UGACGC | 1.96 ± 0.045 | 1.83 ± 0.038
GGACAU | 1.886 ± 0.0069 | 1.8 ± 0.038

Variant | normalized RNA/DNA level with ligand (log10) (hypoxanthine [1]) | normalized RNA/DNA level without ligand (log10) (hypoxanthine [2])
GGACAG | 1.85 ± 0.055 | 1.468 ± 0.0059
AGAUAU | 1.88 ± 0.032 | 1.798 ± 0.015
AGAUAG | 1.82 ± 0.025 | 1.441 ± 0.0087
AGAGAC | 1.88 ± 0.028 | 1.772 ± 0.017
UGAUCA | 1.98 ± 0.031 | 1.899 ± 0.0037
UGAUCC | 1.91 ± 0.087 | 1.921 ± 0.012
UGAUCU | 2.022 ± 0.0077 | 1.939 ± 0.013
AGAACA | 1.91 ± 0.044 | 1.799 ± 0.0065
AGAACU | 1.96 ± 0.035 | 1.83 ± 0.022
AGAGUC | 1.937 ± 0.017 | 1.8831 ± 0.0015
AGAGUG | 1.82 ± 0.047 | 1.331 ± 0.0048
AGAGUU | 1.905 ± 0.0059 | 1.8267 ± 0.0011
CCUGUC | 1.989 ± 0.006 | 1.987 ± 0.018
CCUGUU | 2.04 ± 0.05 | 1.9 ± 0.14
CGACGA | 1.93 ± 0.064 | 1.803 ± 0.0041
CGACGU | 1.956 ± 0.0063 | 1.86 ± 0.075
ACUUUA | 1.903 ± 0.015 | 1.82 ± 0.067
ACUUUC | 1.98 ± 0.046 | 1.95 ± 0.044
ACUUUG | 1.91 ± 0.043 | 1.57 ± 0.021
ACUUUU | 1.92 ± 0.044 | 1.868 ± 0.012
GGAGCC | 1.92 ± 0.062 | 1.854 ± 0.0083
UGAAUG | 1.9 ± 0.0011 | 1.75 ± 0.061
UGAAUC | 1.943 ± 0.013 | 1.96 ± 0.022
UGAAUA | 1.93 ± 0.026 | 1.86 ± 0.019

Variant | normalized RNA/DNA level with ligand (log10) (hypoxanthine [1]) | normalized RNA/DNA level without ligand (log10) (hypoxanthine [2])
UGAAUU | 1.93 ± 0.021 | 1.897 ± 0.014
CCUUGU | 1.93 ± 0.15 | 1.88 ± 0.041
CCUUGA | 1.97 ± 0.09 | 1.86 ± 0.026
AGCAAA | 1.92 ± 0.047 | 1.7327 ± 0.00011
CGAUUG | 1.92 ± 0.045 | 1.922 ± 0.0055
GCUUGC | 1.96 ± 0.033 | 1.87 ± 0.048
GCUUGU | 1.93 ± 0.0067 | 1.72 ± 0.023
UGAAAG | 1.862 ± 0.017 | 1.72 ± 0.039
UGAAAU | 1.907 ± 0.005 | 1.76 ± 0.005
UGAAAA | 1.921 ± 0.0047 | 1.836 ± 0.015
CGCACA | 1.92 ± 0.024 | 1.738 ± 0.016
AGAUCU | 1.94 ± 0.051 | 1.829 ± 0.015
AGAUCA | 1.97 ± 0.049 | 1.81 ± 0.045
AGAUCC | 1.936 ± 0.0091 | 1.874 ± 0.0045
AGAUCG | 1.89 ± 0.031 | 1.55 ± 0.048
GGAACA | 1.942 ± 0.0069 | 1.764 ± 0.0065
GGAACC | 1.957 ± 0.0033 | 1.86 ± 0.021
GGAACU | 1.93 ± 0.031 | 1.9403 ± 0.00023
GGAAAU | 1.9 ± 0.071 | 1.77 ± 0.053
GGAAAC | 1.939 ± 0.018 | 1.84 ± 0.014
UGACCG | 1.96 ± 0.094 | 1.79 ± 0.046
UGACCA | 1.93 ± 0.058 | 1.886 ± 0.0032
UGACCC | 2.002 ± 0.0071 | 1.94 ± 0.024
UGACCU | 2.004 ± 0.012 | 1.92 ± 0.021

Variant | normalized RNA/DNA level with ligand (log10) (hypoxanthine [1]) | normalized RNA/DNA level without ligand (log10) (hypoxanthine [2])
GGAAUC | 1.9 ± 0.035 | 1.81 ± 0.057
GGACUU | 1.94 ± 0.04 | 1.89 ± 0.04
GGACUA | 1.91 ± 0.09 | 1.84 ± 0.023
GGACUC | 1.9331 ± 0.00093 | 1.92 ± 0.085
ACUGUA | 1.93 ± 0.062 | 1.78 ± 0.036
ACUGUC | 1.99 ± 0.026 | 1.898 ± 0.0079
ACUGUU | 1.9396 ± 0.00019 | 1.81 ± 0.05
AGAAGC | 1.918 ± 0.0099 | 1.7002 ± 0.0015
AGAAGU | 1.85 ± 0.034 | 1.51 ± 0.029
UCUUUC | 2.01 ± 0.052 | 1.99 ± 0.068
UCUUUG | 1.95 ± 0.033 | 1.73 ± 0.043
UCUUUU | 1.95 ± 0.086 | 1.947 ± 0.0056
CGAAUC | 1.98 ± 0.028 | 1.96 ± 0.042
CGAAUG | 1.913 ± 0.003 | 1.883 ± 0.008
CGAAUU | 1.95 ± 0.046 | 1.807 ± 0.00086
UCUGUA | 1.95 ± 0.024 | 1.8296 ± 0.0016
UCUGUC | 1.96 ± 0.0083 | 1.956 ± 0.011
UCUGUU | 1.98 ± 0.035 | 1.88 ± 0.034
UCUUAA | 1.87 ± 0.047 | 1.83 ± 0.041
UCUUAC | 1.94 ± 0.058 | 1.83 ± 0.044
UCUUAG | 1.93 ± 0.042 | 1.66 ± 0.017
UCUUAU | 1.9468 ± 0.0014 | 1.84 ± 0.092
GCUUCC | 1.963 ± 0.0026 | 1.833 ± 0.012
GCUUCA | 1.966 ± 0.0076 | 1.898 ± 0.011

Variant | normalized RNA/DNA level with ligand (log10) (hypoxanthine [1]) | normalized RNA/DNA level without ligand (log10) (hypoxanthine [2])
GCUUCU | 1.996 ± 0.0049 | 1.94 ± 0.058
ACUUCU | 1.91 ± 0.12 | 1.889 ± 0.0063
ACUUCA | 1.95 ± 0.025 | 1.922 ± 0.013
ACUUCC | 1.928 ± 0.015 | 1.923 ± 0.0089
AGAAAG | 1.82 ± 0.039 | 1.41 ± 0.029
CGAGCC | 1.94 ± 0.11 | 1.852 ± 0.0083
CGAGCU | 1.968 ± 0.0032 | 1.86 ± 0.052
CGAGCG | 1.94 ± 0.057 | 1.8 ± 0.02
UGAUAG | 1.88 ± 0.04 | 1.7 ± 0.041
UGAUAA | 1.91 ± 0.028 | 1.8144 ± 0.0015
UGAUAC | 1.926 ± 0.0041 | 1.848 ± 0.011
GGAAGU | 1.91 ± 0.047 | 1.7 ± 0.02
CGAGAC | 1.93 ± 0.036 | 1.72 ± 0.025
CGAGAU | 1.94 ± 0.036 | 1.71 ± 0.018
ACUGGC | 1.96 ± 0.036 | 1.844 ± 0.016
ACUGGG | 1.859 ± 0.0034 | 1.44 ± 0.086
UCUUCG | 1.93 ± 0.086 | 1.7 ± 0.11
UCUUCU | 1.979 ± 0.0024 | 1.94 ± 0.099
UCUUCA | 1.97 ± 0.11 | 1.8691 ± 0.00053
UCUUCC | 2.022 ± 0.017 | 1.92 ± 0.024
